{"source": "patent US20040185113A1", "about": "“Fine inorganic particles having drug included therein, method for preparation thereof and pharmaceutical preparation comprising fine inorganic particles having drug included therein” (priority 2001, published 2004)", "molecules": {"B1": {"name": "free G-CSF: granulocyte colony-stimulating factor (Chugai Pharmaceutical) in 1% BSA/Tris-HCl solution, control (protein, UniProt P09919 31-207, looked up)", "Granulocyte …": "TPLGPASSLPQSFLLKCLEQVRKIQGDGAALQEKLVSECATYKLCHPEELVLLGHSLGIPWAPLSSCPSQALQLAGCLSQLHSGLFLYQGLLQALEGISPELGPTLDTLQLDVADFATTIWQQMEELGMAPALQPTQGAMPAFASAFQRRAGGVLVASHLQSFLEVSYRVLRHLAQP"}}, "experiment": "G-CSF release test and stability of G-CSF in buffer solution at room temperature", "type": "physicochemical", "settings": "1% BSA/Tris-HCl (pH 7.2), ELISA, FIG. 4", "experimental": "Six hundred fifty μl of 5M CaCl2 was admixed with 250 μl of 500 μg/ml G-CSF with stirring. Then 2.5 ml of 1M Na2CO3 was added and stirred for 10 minutes to prepare CaCO3 particles. Five ml of H2O was added to the particles, and the mixture was centrifuged at 2,000 rpm for 5 min to remove the supernatant. To the resultant precipitate, 12.5 ml of H2O was added, and 1 ml of the mixture was taken into a 2.0 ml test tube. The test tube and content was centrifuged at 2,000 rpm for 5 min to remove the supernatant which was used for ELISA. To the resultant precipitate, 1 ml of 1% BSA/Tris—HCl (pH 7.2) was added and shaken at room temperature. The mixture was centrifuged every 24 hours at 2,000 rpm for 5 min to collect the supernatant and to the resultant precipitate 1 ml of 1% BSA/Tris—HCl (pH 7.2) was added again, and this operation was continued for 7 days. The last precipitate was dissolved with hydrochloric acid and used for ELISA. G-CSF was assayed using ELISA Kit manufactured by IBL Co. and the total (cumulative) amount of G-CSF released from the G-CSF-encapsulating CaCO3 preparation was shown. […] A part of the mixture was collected every 24 hours, and the amount of G-CSF was determined by ELISA to examine the stability of G-CSF at room temperature.", "data": [{"molecule": "B1", "values": [{"measurement": "stability of G-CSF", "value": "unstableness"}]}]}
